# Reference: the Immune Epitope Database (IEDB)
# pKd: −log10 of the molar value.
# Columns and labels:
# HLA-A*26:02 [1] = experiment: IEDB peptide-MHC binding, purified MHC/direct/fluorescence; filed as Kd, often an IC50 or EC50 that approximates it; ≥ and ≤ were set here for values at or beyond the usual limits of such assays; conditions: source organism: Yellow fever virus
# HLA-B*15:01 [2] = experiment: as above; conditions: source organism: Yellow fever virus
# HLA-B*46:01 [3] = experiment: as above; conditions: source organism: Yellow fever virus
# HLA-A*02:01 [4] = experiment: as above; conditions: source organism: Mycobacterium tuberculosis
# HLA-A*11:01 [5] = experiment: as above; conditions: source organism: Mycobacterium tuberculosis
# HLA-A*31:01 = experiment: as above; conditions: source organism: Mycobacterium tuberculosis
# HLA-B*07:02 [6] = experiment: as above; conditions: source organism: Mycobacterium tuberculosis
# HLA-B*27:05 [7] = experiment: as above; conditions: source organism: Mycobacterium tuberculosis
# HLA-B*40:01 [8] = experiment: as above; conditions: source organism: Mycobacterium tuberculosis
# HLA-B*48:01 = experiment: as above; conditions: source organism: Mycobacterium tuberculosis
# HLA-B*58:01 [9] = experiment: as above; conditions: source organism: Mycobacterium tuberculosis
# HLA-A*01:01 = experiment: IEDB peptide-MHC binding, purified MHC/competitive/fluorescence; filed as Kd, often an IC50 or EC50 that approximates it; ≥ and ≤ were set here for values at or beyond the usual limits of such assays
# HLA-A*26:01 = experiment: as above
# HLA-A*26:02 [10] = experiment: as above; conditions: source organism: Mycobacterium tuberculosis C
# HLA-A*26:03 = experiment: as above; conditions: source organism: Mycobacterium tuberculosis C
# HLA-A*68:02 = experiment: as above
# HLA-A*69:01 = experiment: as above; conditions: source organism: Mycobacterium tuberculosis C
# HLA-B*15:17 = experiment: as above; conditions: source organism: Mycobacterium tuberculosis C
# HLA-B*35:01 = experiment: as above; conditions: source organism: Mycobacterium tuberculosis C
# HLA-B*57:01 = experiment: as above
# HLA-A*30:01 [11] = experiment: IEDB peptide-MHC binding, purified MHC/direct/fluorescence; filed as Kd, often an IC50 or EC50 that approximates it; ≥ and ≤ were set here for values at or beyond the usual limits of such assays; conditions: source organism: Variola virus
# HLA-A*80:01 = experiment: as above; conditions: source organism: Camelpox virus M-96
# HLA-C*12:03 = experiment: as above; conditions: source organism: Bacillus anthracis str. A0488
# HLA-A*02:01 [12] = experiment: IEDB peptide-MHC binding, purified MHC/competitive/fluorescence; filed as Kd, often an IC50 or EC50 that approximates it; ≥ and ≤ were set here for values at or beyond the usual limits of such assays; conditions: source organism: Bacillus anthracis str. A0488
# HLA-A*03:01 = experiment: as above; conditions: source organism: Bacillus anthracis str. A0488
# HLA-A*11:01 [13] = experiment: as above; conditions: source organism: Bacillus anthracis str. A0488
# HLA-A*24:03 = experiment: as above; conditions: source organism: Bacillus anthracis str. A0488
# HLA-A*29:02 = experiment: as above; conditions: source organism: Bacillus anthracis str. A0488
# HLA-A*30:01 [14] = experiment: as above; conditions: source organism: Bacillus anthracis str. A0488
# HLA-A*30:02 = experiment: as above; conditions: source organism: Bacillus anthracis str. A0488
# HLA-A*66:01 = experiment: as above; conditions: source organism: Bacillus anthracis str. A0488
# HLA-B*07:02 [15] = experiment: as above
# HLA-B*08:01 = experiment: as above; conditions: source organism: Bacillus anthracis str. A0488
# HLA-B*14:02 = experiment: as above; conditions: source organism: Bacillus anthracis str. A0488
# HLA-B*15:01 [16] = experiment: as above; conditions: source organism: Bacillus anthracis str. A0488
# HLA-B*18:01 = experiment: as above; conditions: source organism: Bacillus anthracis str. A0488
# HLA-B*27:03 = experiment: as above; conditions: source organism: Bacillus anthracis str. A0488
# HLA-B*27:05 [17] = experiment: as above; conditions: source organism: Bacillus anthracis str. A0488
# HLA-B*39:01 = experiment: as above; conditions: source organism: Bacillus anthracis str. A0488
# HLA-B*40:01 [18] = experiment: as above; conditions: source organism: Bacillus anthracis str. A0488
# HLA-B*44:02 = experiment: as above; conditions: source organism: Bacillus anthracis str. A0488
# HLA-B*46:01 [19] = experiment: as above; conditions: source organism: Bacillus anthracis str. A0488
# HLA-B*51:01 = experiment: as above; conditions: source organism: Bacillus anthracis str. A0488
# HLA-B*53:01 = experiment: as above; conditions: source organism: Bacillus anthracis str. A0488
# HLA-B*58:01 [20] = experiment: as above; conditions: source organism: Bacillus anthracis str. A0488
# HLA-B*15:42 = experiment: as above; conditions: source organism: Influenza A virus (A/swine/Hannover/1/1981(H1N1))
# HLA-B*27:20 = experiment: as above; conditions: source organism: Influenza A virus (A/swine/Hannover/1/1981(H1N1))
# HLA-B*45:06 = experiment: as above; conditions: source organism: Influenza A virus (A/swine/Hannover/1/1981(H1N1))
# HLA-B*83:01 = experiment: as above; conditions: source organism: Influenza A virus (A/swine/Hannover/1/1981(H1N1))
# HLA-C*14:02 = experiment: as above; conditions: source organism: Influenza A virus (A/swine/Hannover/1/1981(H1N1))
# [21] = source organism: Mycobacterium tuberculosis C
# [22] = source organism: Bacillus anthracis str. A0488
sequence,measurement,setting,value
LVLAVGPAY,pKd,HLA-A*26:02 [1],6.26
same,pKd,HLA-B*15:01 [2],7.27
same,pKd,HLA-B*46:01 [3],≤ 4.70
LTFLDCLYY,pKd,HLA-A*02:01 [4],≤ 4.70
same,pKd,HLA-A*11:01 [5],7.13
same,pKd,HLA-A*31:01,≤ 4.70
same,pKd,HLA-B*07:02 [6],≤ 4.70
same,pKd,HLA-B*27:05 [7],≤ 4.70
same,pKd,HLA-B*40:01 [8],≤ 4.70
same,pKd,HLA-B*48:01,≤ 4.70
same,pKd,HLA-B*58:01 [9],6.84
same,pKd,HLA-A*01:01; [21],8.40
same,pKd,HLA-A*26:01; [21],6.96
same,pKd,HLA-A*26:02 [10],≤ 4.70
same,pKd,HLA-A*26:03,≤ 4.70
same,pKd,HLA-A*68:02; [21],≤ 4.70
same,pKd,HLA-A*69:01,≤ 4.70
same,pKd,HLA-B*15:17,9.30
same,pKd,HLA-B*35:01,7.15
same,pKd,HLA-B*57:01; [21],6.73
ITYLMNRFK,pKd,HLA-A*30:01 [11],≥ 9.00
same,pKd,HLA-A*80:01,≤ 4.70
FVMPIFEQI,pKd,HLA-C*12:03,7.17
same,pKd,HLA-A*01:01; [22],≤ 5.30
same,pKd,HLA-A*02:01 [12],≤ 5.30
same,pKd,HLA-A*03:01,≤ 4.70
same,pKd,HLA-A*11:01 [13],≤ 5.30
same,pKd,HLA-A*24:03,8.49
same,pKd,HLA-A*26:01; [22],≤ 4.70
same,pKd,HLA-A*29:02,≤ 5.30
same,pKd,HLA-A*30:01 [14],≤ 5.30
same,pKd,HLA-A*30:02,≤ 5.30
same,pKd,HLA-A*66:01,≤ 5.30
same,pKd,HLA-A*68:02; [22],9.52
same,pKd,HLA-B*07:02 [15]; [22],≤ 5.30
same,pKd,HLA-B*08:01,≤ 5.30
same,pKd,HLA-B*14:02,≤ 5.30
same,pKd,HLA-B*15:01 [16],≤ 4.70
same,pKd,HLA-B*18:01,≤ 4.70
same,pKd,HLA-B*27:03,≤ 4.70
same,pKd,HLA-B*27:05 [17],≤ 5.30
same,pKd,HLA-B*39:01,≤ 4.70
same,pKd,HLA-B*40:01 [18],≤ 5.30
same,pKd,HLA-B*44:02,≤ 5.30
same,pKd,HLA-B*46:01 [19],≤ 4.70
same,pKd,HLA-B*51:01,≤ 4.70
same,pKd,HLA-B*53:01,≤ 5.30
same,pKd,HLA-B*57:01; [22],≤ 4.70
same,pKd,HLA-B*58:01 [20],≤ 5.30
RRRFVQNAL,pKd,HLA-B*07:02 [15]; source organism: Influenza A virus (A/swine/Hannover/1/1981(H1N1)),≤ 4.70
same,pKd,HLA-B*15:42,≤ 5.30
same,pKd,HLA-B*27:20,8.89
same,pKd,HLA-B*45:06,≤ 5.30
same,pKd,HLA-B*83:01,≤ 5.30
same,pKd,HLA-C*14:02,6.68
